Reference: patent publication US20260085129A1 (ECO ANIMAL HEALTH, published 2026)

T1: porcine CD163, membrane-bound form on porcine pulmonary alveolar macrophage (pPAM) WT cells (porcine, UniProt Q2VL90 47-1115)
T1 sequence: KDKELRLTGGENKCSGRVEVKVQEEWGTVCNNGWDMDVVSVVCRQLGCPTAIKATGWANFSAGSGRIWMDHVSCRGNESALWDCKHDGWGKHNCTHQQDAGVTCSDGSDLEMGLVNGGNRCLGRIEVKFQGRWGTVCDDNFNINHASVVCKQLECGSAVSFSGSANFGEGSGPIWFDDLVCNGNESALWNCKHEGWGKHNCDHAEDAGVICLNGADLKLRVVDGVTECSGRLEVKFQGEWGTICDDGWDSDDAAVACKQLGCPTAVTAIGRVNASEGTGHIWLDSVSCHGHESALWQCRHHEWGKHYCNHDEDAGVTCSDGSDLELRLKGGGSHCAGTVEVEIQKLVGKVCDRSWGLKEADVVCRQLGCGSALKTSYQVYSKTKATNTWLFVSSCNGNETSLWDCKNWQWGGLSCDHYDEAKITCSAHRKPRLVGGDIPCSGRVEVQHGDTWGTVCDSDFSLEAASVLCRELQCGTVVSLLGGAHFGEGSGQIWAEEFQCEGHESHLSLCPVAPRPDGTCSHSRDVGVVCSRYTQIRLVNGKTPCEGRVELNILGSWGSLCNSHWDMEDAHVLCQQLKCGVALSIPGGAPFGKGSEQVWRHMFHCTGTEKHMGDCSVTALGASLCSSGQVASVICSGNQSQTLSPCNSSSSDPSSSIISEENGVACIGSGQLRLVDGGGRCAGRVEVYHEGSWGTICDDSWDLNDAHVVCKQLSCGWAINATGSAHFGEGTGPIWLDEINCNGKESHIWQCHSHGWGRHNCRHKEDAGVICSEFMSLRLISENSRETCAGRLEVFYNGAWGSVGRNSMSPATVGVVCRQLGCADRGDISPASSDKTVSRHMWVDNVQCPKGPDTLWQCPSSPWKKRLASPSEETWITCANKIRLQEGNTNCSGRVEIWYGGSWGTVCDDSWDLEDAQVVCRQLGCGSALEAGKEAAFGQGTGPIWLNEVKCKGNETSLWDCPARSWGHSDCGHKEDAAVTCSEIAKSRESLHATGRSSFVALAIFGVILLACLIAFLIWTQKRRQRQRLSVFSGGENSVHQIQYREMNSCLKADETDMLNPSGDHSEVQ

T2: porcine CD163 with deletion of SRCR domain 5, on pPAMΔ5 cells (porcine, UniProt Q2VL90 47-1115)
T2 construct: also called pPAMΔ5 domain cells; pPAMΔ5 WT cells
T2 sequence: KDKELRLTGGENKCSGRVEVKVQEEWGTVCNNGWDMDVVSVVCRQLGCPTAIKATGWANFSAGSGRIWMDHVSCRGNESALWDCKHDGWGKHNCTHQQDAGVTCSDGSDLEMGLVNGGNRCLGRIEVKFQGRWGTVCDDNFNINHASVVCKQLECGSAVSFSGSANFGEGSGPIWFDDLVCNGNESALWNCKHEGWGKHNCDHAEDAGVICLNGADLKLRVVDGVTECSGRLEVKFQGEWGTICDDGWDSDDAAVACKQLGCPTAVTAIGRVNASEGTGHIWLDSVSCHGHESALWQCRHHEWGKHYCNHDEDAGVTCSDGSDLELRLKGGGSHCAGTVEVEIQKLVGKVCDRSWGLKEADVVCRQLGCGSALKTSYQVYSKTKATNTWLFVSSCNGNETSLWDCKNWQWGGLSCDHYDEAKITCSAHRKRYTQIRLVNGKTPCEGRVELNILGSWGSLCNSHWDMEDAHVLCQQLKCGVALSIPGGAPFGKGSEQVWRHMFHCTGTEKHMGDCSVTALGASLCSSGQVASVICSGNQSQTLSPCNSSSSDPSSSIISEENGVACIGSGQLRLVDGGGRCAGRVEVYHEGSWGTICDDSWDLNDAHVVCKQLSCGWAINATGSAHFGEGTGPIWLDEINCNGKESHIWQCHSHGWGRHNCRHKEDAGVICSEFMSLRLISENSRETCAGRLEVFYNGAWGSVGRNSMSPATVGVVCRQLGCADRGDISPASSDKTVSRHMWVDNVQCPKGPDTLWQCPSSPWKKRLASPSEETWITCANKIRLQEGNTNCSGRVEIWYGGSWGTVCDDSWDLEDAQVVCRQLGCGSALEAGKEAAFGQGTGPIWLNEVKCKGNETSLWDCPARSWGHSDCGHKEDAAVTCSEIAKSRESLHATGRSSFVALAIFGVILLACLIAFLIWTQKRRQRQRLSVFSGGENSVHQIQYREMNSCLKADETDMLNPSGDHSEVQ

B1: 17B11 + 03E11 + 03D03 2(G4S) triparatopic VHH construct (bispecific antibody)
chain: QVQLVESGGGLVQAGGSLRLSCAASGRTFSSYAMGWFRQTPGKDREFVARIGWTGGTTIYADSVKGRFTISRDNAKNTVYLQMNSLKPEDTAVYYCAADQAGWRTAGVRNTYEYDYWGQGTQVTVSSGGGGSGGGGSQVQLQESGGGLVQVGSSLRLSCVTSGRTPSRYVMGWFRQAPGQEREFVAAISWSGRAPYADSVKGRFTISRDNAKNTVYLQMNSLKPEDTGVYYCAGGEGAIKWTTLDAYDYWGQGTQVTVSSGGGGSGGGGSQLQLVESGGGLVQPGGSLRLSCAASGFTLDDYTIGWFRQAPGKEREGVSCINSITSNTYYADSVKGRFTISRDNAKNTVYLQMNSLTAEDTAIYYCAADSGLFSGSSCLKYRAMRFGSWGQGTQVTVSS
notes: Triparatopic; also called Tri-10; Triparatopic-10; not shown: FLAG and His tags
B2: Clone 19-H03E11 VHH antibody (VHH)
VHH: QVQLQESGGGLVQVGSSLRLSCVTSGRTPSRYVMGWFRQAPGQEREFVAAISWSGRAPYADSVKGRFTISRDNAKNTVYLQMNSLKPEDTGVYYCAGGEGAIKWTTLDAYDYWGQGTQVTVSS
notes: Tested as periplasmic extract in ELISA and FACS screening; also called VHH 019 (3E11)
B3: Clone 17-H03D03 VHH antibody (VHH)
VHH: QLQLVESGGGLVQPGGSLRLSCAASGFTLDDYTIGWFRQAPGKEREGVSCINSITSNTYYADSVKGRFTISRDNAKNTVYLQMNSLTAEDTAIYYCAADSGLFSGSSCLKYRAMRFGSWGQGTQVTVSS
notes: Tested as periplasmic extract in ELISA and FACS screening; also called VHH 017 (3D03)

Legend:
[1] = target: T1, porcine CD163, membrane-bound form on …; assay: cell-based or functional assay
[2] = target: T1, porcine CD163, membrane-bound form on …; assay: cell-based or functional assay; remark: listed apart in the source
[3] = target: T1, porcine CD163, membrane-bound form on …; assay: dose-response FACS on pPAM WT cells, anti-FLAG-biotin and streptavidin R-PE detection
Experimental: Biparatopic and triparatopic antibody constructs in PBS (pH7.4) were diluted in a 3-fold serial dilutions from 150 nM down to 0.023 nM in FACS buffer (0.5% FBS, 0.5 mM EDTA in 1×PBS pH7.4). Biparatopic and triparatopic candidates were incubated with anti-FLAG-Biotin (Sigma, Cat. nr. F9291), for 30 min on ice with shaking. This mixture was added to pPAM WT cells and incubated for 60 min on ice with gentle shaking. Cells were washed 3×with 150 μl/well of FACS buffer and incubated with 50 μl/well of the secondary detection reagent Streptavidin R-P.E. conjugate antibody (Invitrogen, Cat. nr. SA10044) for 30 min on ice with shaking and protected from light. Cells were then washed 3× with 150 μl/well of FACS Buffer and resuspended in 50 μl/well of FACS buffer to be measured on a FACS machine (Attune™ N×T), and a total of 10000 cells were acquired per sample.

[4] = target: T2, porcine CD163 with deletion of SRCR …; assay: P.E. FACS screening on pPAMΔ5 cells
[5] = target: T1, porcine CD163, membrane-bound form on …; assay: P.E. FACS screening on pPAM WT cells

Binder | IC50, PRRSV1 LT3 infection assay, high CD163 porcine serum [1] [nM] | IC50, PRRSV1 LT3 infection assay, low CD163 porcine serum [1] [nM] | IC50, PRRSV2 strain MN184 infection assay, 10% FBS [2] [nM] | IC50, PRRSV2 strain NA174 infection assay, high CD163 porcine serum [2] [nM] | IC50, PRRSV2 strain NA174 infection assay, low CD163 porcine serum [2] [nM] | EC50 [3] [nM] | binding result [4] | binding result [5]
B1 | 4.02 | 3.41 | 2.84 | 7.6 | 3.94 | 11.6 |  | 
B2 |  |  |  |  |  |  | no binding | binds
B3 |  |  |  |  |  |  | no binding | binds
